B1: NLV3 TCR beta chain (CDR3β only) (parent)
chain: ASSPTGGSPSPLH
partner: MLVPMVATV

Variants of: B1
Experiment: T-Switch: Jurkat TCRβ−/− cells expressing a CDR3 saturation-mutagenesis library, stained with two peptide-HLA-A*02:01 tetramers (original and novel peptide) plus anti-CD3, FACS-sorted into four gates, gDNA sequenced
Conditions: with HLA-A*02:01 with peptide … (NLV 3-1, the original bait), tetramers 1 µg/mL, 30 min on ice, DP and SW gates expanded about 10 days between rounds ('two to three rounds of selection' in the Methods), gate SP: higher = more of the variant in the gate that binds the original peptide and not the novel one = retained original binding. Fold enrichment of the CDR3 variant in one FACS gate of a two-tetra, unresolved parent, parent is a CDR3 fragment, scale: fold enrichment, numbering: sequential-on-construct, sequence …

Row | Variant | enrichment
1 | […] (CDR3 as printed); S3G derived by comparing it with the table's wild-type CDR3 ASSPTGGSPSPLH | 9.71
2 | […] (CDR3 as printed); P11Y derived by comparing it with the table's wild-type CDR3 ASSPTGGSPSPLH | 1.78
3 | […] (CDR3 as printed); P9D derived by comparing it with the table's wild-type CDR3 ASSPTGGSPSPLH | 0
4 | […] (CDR3 as printed); P9W derived by comparing it with the table's wild-type CDR3 ASSPTGGSPSPLH | 0
5 | […] (CDR3 as printed); G6A derived by comparing it with the table's wild-type CDR3 ASSPTGGSPSPLH | 8.12
6 | […] (CDR3 as printed); P11C derived by comparing it with the table's wild-type CDR3 ASSPTGGSPSPLH | 6.3
7 | […] (CDR3 as printed); G6S derived by comparing it with the table's wild-type CDR3 ASSPTGGSPSPLH | 10.5
8 | […] (CDR3 as printed); P11W derived by comparing it with the table's wild-type CDR3 ASSPTGGSPSPLH | 0
9 | […] (CDR3 as printed); T5E derived by comparing it with the table's wild-type CDR3 ASSPTGGSPSPLH | 0
10 | […] (CDR3 as printed); S8W derived by comparing it with the table's wild-type CDR3 ASSPTGGSPSPLH | 0
11 | […] (CDR3 as printed); T5G derived by comparing it with the table's wild-type CDR3 ASSPTGGSPSPLH | 0
12 | […] (CDR3 as printed); A1M derived by comparing it with the table's wild-type CDR3 ASSPTGGSPSPLH | 0
13 | […] (CDR3 as printed); H13C derived by comparing it with the table's wild-type CDR3 ASSPTGGSPSPLH | 6.06
14 | […] (CDR3 as printed); P9R derived by comparing it with the table's wild-type CDR3 ASSPTGGSPSPLH | 0
15 | […] (CDR3 as printed); S3R derived by comparing it with the table's wild-type CDR3 ASSPTGGSPSPLH | 0
16 | […] (CDR3 as printed); S8Y derived by comparing it with the table's wild-type CDR3 ASSPTGGSPSPLH | 8.08
17 | […] (CDR3 as printed); H13M derived by comparing it with the table's wild-type CDR3 ASSPTGGSPSPLH | 6.07
18 | […] (CDR3 as printed); A1K derived by comparing it with the table's wild-type CDR3 ASSPTGGSPSPLH | 0
19 | […] (CDR3 as printed); S10Q derived by comparing it with the table's wild-type CDR3 ASSPTGGSPSPLH | 5.52
20 | […] (CDR3 as printed); S8A derived by comparing it with the table's wild-type CDR3 ASSPTGGSPSPLH | 11.2
21 | […] (CDR3 as printed); P9L derived by comparing it with the table's wild-type CDR3 ASSPTGGSPSPLH | 1.13

Row | Variant | enrichment
22 | […] (CDR3 as printed); S2Q derived by comparing it with the table's wild-type CDR3 ASSPTGGSPSPLH | 0
23 | […] (CDR3 as printed); S2K derived by comparing it with the table's wild-type CDR3 ASSPTGGSPSPLH | 0
24 | […] (CDR3 as printed); P4N derived by comparing it with the table's wild-type CDR3 ASSPTGGSPSPLH | 1.25
25 | […] (CDR3 as printed); P9T derived by comparing it with the table's wild-type CDR3 ASSPTGGSPSPLH | 0.619
26 | […] (CDR3 as printed); H13G derived by comparing it with the table's wild-type CDR3 ASSPTGGSPSPLH | 0.848
27 | […] (CDR3 as printed); G6N derived by comparing it with the table's wild-type CDR3 ASSPTGGSPSPLH | 0
28 | […] (CDR3 as printed); G6F derived by comparing it with the table's wild-type CDR3 ASSPTGGSPSPLH | 0
29 | […] (CDR3 as printed); H13R derived by comparing it with the table's wild-type CDR3 ASSPTGGSPSPLH | 4.99
30 | […] (CDR3 as printed); L12M derived by comparing it with the table's wild-type CDR3 ASSPTGGSPSPLH | 2.27
31 | […] (CDR3 as printed); T5P derived by comparing it with the table's wild-type CDR3 ASSPTGGSPSPLH | 0
32 | […] (CDR3 as printed); T5Y derived by comparing it with the table's wild-type CDR3 ASSPTGGSPSPLH | 15.6
33 | […] (CDR3 as printed); P9N derived by comparing it with the table's wild-type CDR3 ASSPTGGSPSPLH | 0
34 | […] (CDR3 as printed); S10H derived by comparing it with the table's wild-type CDR3 ASSPTGGSPSPLH | 0
35 | […] (CDR3 as printed); G7I derived by comparing it with the table's wild-type CDR3 ASSPTGGSPSPLH | 0
36 | […] (CDR3 as printed); G7H derived by comparing it with the table's wild-type CDR3 ASSPTGGSPSPLH | 0
37 | […] (CDR3 as printed); S8T derived by comparing it with the table's wild-type CDR3 ASSPTGGSPSPLH | 0
38 | […] (CDR3 as printed); A1N derived by comparing it with the table's wild-type CDR3 ASSPTGGSPSPLH | 0
39 | […] (CDR3 as printed); P9I derived by comparing it with the table's wild-type CDR3 ASSPTGGSPSPLH | 0
40 | […] (CDR3 as printed); L12I derived by comparing it with the table's wild-type CDR3 ASSPTGGSPSPLH | 1.14
41 | […] (CDR3 as printed); S2N derived by comparing it with the table's wild-type CDR3 ASSPTGGSPSPLH | 0
42 | […] (CDR3 as printed); P4H derived by comparing it with the table's wild-type CDR3 ASSPTGGSPSPLH | 0
